Assay results reported in patent US10494415B2, “Insulin-like growth factor 2 (IGF2) binding agents” (Cancer Research Technology Limited, priority 2015, dated 2019).

Legend:
[1] = test system: Ewing sarcoma cell line (SKNMC); experiment: Synthetic lethality hit validation dose response curves; format: cell-based; details: Homo sapiens, SK-N-MC
Procedure: For synthetic lethality hit validation, fresh stocks of the […] drugs selected as hits were obtained (pictilisib, SYNkinase and PF-04691502, Cayman Chemical). The interaction of the selected drugs and IGF2-TRAP were evaluated by Q-value calculated by the formula Q=FD+T/FD+(1−FD)FT, where FD+T represents the fraction affected by treatment with the drug plus IGF2-TRAP compared with the untreated control group, FD represents the fraction affected by the drug alone, and FT represents the fraction affected by the IGF2-TRAP alone. A value of Q>1.15 indicates a synergistic effect, Q<0.85 indicates an antagonistic effect, and Q between 0.85 and 1.15 indicates an additive effect.

IGF2 [2] = biological target: T1, IGF2 (Homo sapiens, UniProt P01344); details: background, literature references; cited from earlier work
T1 sequence (P01344 25-91): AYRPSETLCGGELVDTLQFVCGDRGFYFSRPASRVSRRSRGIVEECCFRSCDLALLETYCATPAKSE

IGF2 [3] = biological target: T1, IGF2; experiment: SPR (Biacore T200) of recombinant IGF2R domain 11 mutants on immobilised biotinylated IGF2; format: binding; set-up: purchased GroPep
Description: Surface plasmon resonance (SPR) binding analysis of recombinant M6P/IGF2R domain 11 mutants interaction with IGF2. Kon indicates association (on) rate; koff, dissociation (off) rate; RU, response units. Binding to IGF2 assessed with BIAcore T200 using purified biotinylated IGF2 and IGF1 on a streptavidin biosensor chip. Recombinant proteins were expressed either in E. coli and/or P. pastoris. All the mutants in the FG and CD loops are on the domain 11^AB5 background for the AB loop unless otherwise stated. All experiments were carried out at 25° C. in HBS-EP buffer (pH 7.4), were repeated 2-5 times on two independent BIAcore chips. nd=not determined. Data for KD expressed as mean of each experiment, and means of kon and koff are shown.
Measurements were carried out at 25° C. in HBS-EP buffer (pH 7.4) (nd=not determined, np=no protein). Data for KD expressed as mean of each experiment, and means of kon and koff are shown.
Measurements were carried out at 25° C. in MES-EP buffer, 20 mM MES pH 6.5, 150 mM NaCl, 3 mM EDTA, and 0.005% (v/v) surfactant P20). Data for KD expressed as mean of each experiment, and means of kon and koff are shown.
Final kinetic analysis of mutants by SPR was conducted using a Biacore T200 biosensor at 25° C. in either HBS-EP (10 mM HEPES pH 7.4, 150 mM NaCl, 3 mM EDTA, and 0.005% (v/v) surfactant P20) or MES-EP (20 mM MES pH 6.5, 150 mM NaCl, 3 mM EDTA, and 0.005% (v/v) surfactant P20) at a flow-rate of 40 μL min^−1. […] For the analysis of the Fc-domain 11^AB5 interaction, approximately 50 RU of a biotinylated IGF2:biotinylated ubiquitin mixture (1:8 proportion) was immobilized on the CM5-streptavidin chip. This interaction was also analysed by immobilizing the Fc-domain 11^AB5 and Fc-domain 11^AB5-RHH (or Fc-domain 11^I1572A as control) by Human Antibody Capture (monoclonal mouse anti-human IgG antibody immobilised on a CM5 chip by amine coupling, GE Healthcare) with and without human IgG1 Fc fragment (Bethyl Laboratories, UK) in the control flow cell. Increasing concentrations of IGF2^1-67, proIGF2^1-104, proIGF2^1-156 and IGF1 ranging from 0.125 to 32 nM were injected. T200 BiaEvaluation software (GE Healthcare) was used to fit the resulting curves according to a 1:1 binding model. Steady state affinities were determined using the kinetic data, taking the response average at 5 seconds before injection end and for 5 seconds average. Thermodynamic data was performed across the temperature range of 10° C. to 30° C., van't Hoff and Erying plots generated and ΔH, −TΔS and ΔG values determined as previously described.

[4] = in the presence of Fc-domain 11^AB5-RHH (IGF2-TRAP)

Molecule | Kinetics koff (IGF2 [3]; Table 3, 25° C., HBS-EP pH 7.4) [s⁻¹] | Kinetics kon (IGF2 [3]; Table 3, 25° C., HBS-EP pH 7.4) [M⁻¹ s⁻¹] | Kinetics koff (IGF2 [3]; Table 4, MES-EP pH 6.5) [s⁻¹] | Kinetics kon (IGF2 [3]; Table 4, MES-EP pH 6.5) [M⁻¹ s⁻¹] | further results
CS(=O)(=O)N1CCN(Cc2cc3nc(-c4cccc5[nH]ncc45)nc(N4CCOCC4)c3s2)CC1 [Pictilisib, 4-[2-(1H-indazol-4-yl)-6-[(4-methylsulfonylpiperazin-1-yl)methyl]thieno[3,2-d]pyrimidin-4-yl]morpholine] |  |  |  |  | IC50 ([1]; drug alone): 1100 nM; IC50 [1, 4]: 140 nM
COc1ccc(-c2cc3c(C)nc(N)nc3n([C@H]3CC[C@H](OCCO)CC3)c2=O)cn1 [PF-04691502, 2-amino-8-[trans-4-(2-hydroxyethoxy)cyclohexyl]-6-(6-methoxypyridin-3-yl)-4-methylpyrido-[2,3-d]pyrimidin-7(8H)-one] |  |  |  |  | IC50 ([1]; drug alone): 420 nM; IC50 [1, 4]: 92 nM
AB3: IGF2R domain 11 with AB loop mutations E1544K, K1545S, L1547V (YSKSGV) (protein) MKSNEHDDCQVTNPSTGHLFDLSSLSGRAGFTAAYSKSGVVYMSICGENENCPPGVGACFGQTRISVGKANKRLRYVDQVLQLVYKDGSPCPSKSGLSYKSVISFVCRPEAGPTNRPMLISLDKQTCTLFFSWHTPLACEQATECSV | 0.044 | 2.76e+06 | 0.0381 | 3.43e+06 | Kd (IGF2 [2]): 15 nM; Kinetics koff (IGF2 [3]; Table 1, 25° C., HBS-EP pH 7.4): 0.044 s⁻¹; Kinetics kon (IGF2 [3]; Table 1, 25° C., HBS-EP pH 7.4): 2.76e+06 M⁻¹ s⁻¹; Kinetics koff (IGF2 [3]; Table 2): 0.044 s⁻¹; Kinetics kon (IGF2 [3]; Table 2): 2.76e+06 M⁻¹ s⁻¹
AB5 Q1569R P1597H K1631W: domain 11 AB5 + Q1569R, P1597H, K1631W (protein) MKSNEHDDCQVTNPSTGHLFDLSSLSGRAGFTAAYAKGWGVYMSICGENENCPPGVGACFGRTRISVGKANKRLRYVDQVLQLVYKDGSHCPSKSGLSYKSVISFVCRPEAGPTNRPMLISLDWQTCTLFFSWHTPLACEQATECSV | 0.0115 | 1.12e+07 |  |  | 
AB5 P1597K S1602H: domain 11 AB5 + P1597K, S1602H (protein) MKSNEHDDCQVTNPSTGHLFDLSSLSGRAGFTAAYAKGWGVYMSICGENENCPPGVGACFGQTRISVGKANKRLRYVDQVLQLVYKDGSKCPSKHGLSYKSVISFVCRPEAGPTNRPMLISLDKQTCTLFFSWHTPLACEQATECSV | 0.0096 | 2.09e+06 |  |  | 
WT: wild-type human IGF2R domain 11 (residues 1511-1650), AB loop YSEKGL (protein) MKSNEHDDCQVTNPSTGHLFDLSSLSGRAGFTAAYSEKGLVYMSICGENENCPPGVGACFGQTRISVGKANKRLRYVDQVLQLVYKDGSPCPSKSGLSYKSVISFVCRPEAGPTNRPMLISLDKQTCTLFFSWHTPLACEQATECSV |  |  | 0.1441 | 2.68e+06 | Kd (IGF2 [2]): 40 to 60 nM; Kinetics koff (IGF2 [3]; Table 1, 25° C., HBS-EP pH 7.4): 0.23 s⁻¹; Kinetics kon (IGF2 [3]; Table 1, 25° C., HBS-EP pH 7.4): 5e+06 M⁻¹ s⁻¹; Kinetics koff (IGF2 [3]; Table 2): 0.23 s⁻¹; Kinetics kon (IGF2 [3]; Table 2): 5e+06 M⁻¹ s⁻¹; ΔH of IGF2 interaction (IGF2 [3]; van't Hoff, 10° C. to 30° C.): < 0; −TΔS of IGF2 interaction (IGF2 [3]; van't Hoff, 10° C. to 30° C.): > 0
AB5 Q1569R P1597K S1602H G1603K: domain 11 AB5 + Q1569R, P1597K, S1602H, G1603K (protein) MKSNEHDDCQVTNPSTGHLFDLSSLSGRAGFTAAYAKGWGVYMSICGENENCPPGVGACFGRTRISVGKANKRLRYVDQVLQLVYKDGSKCPSKHKLSYKSVISFVCRPEAGPTNRPMLISLDKQTCTLFFSWHTPLACEQATECSV | 0.008 |  |  |  | 
AB5 Q1569R P1597K S1602H: domain 11 AB5 + Q1569R, P1597K, S1602H (protein) MKSNEHDDCQVTNPSTGHLFDLSSLSGRAGFTAAYAKGWGVYMSICGENENCPPGVGACFGRTRISVGKANKRLRYVDQVLQLVYKDGSKCPSKHGLSYKSVISFVCRPEAGPTNRPMLISLDKQTCTLFFSWHTPLACEQATECSV | 0.0073 | 7.87e+06 |  |  | 
AB5 Q1569R P1597H S1602H G1603K: domain 11 AB5 + Q1569R, P1597H, S1602H, G1603K (protein) MKSNEHDDCQVTNPSTGHLFDLSSLSGRAGFTAAYAKGWGVYMSICGENENCPPGVGACFGRTRISVGKANKRLRYVDQVLQLVYKDGSHCPSKHKLSYKSVISFVCRPEAGPTNRPMLISLDKQTCTLFFSWHTPLACEQATECSV | 0.005 |  |  |  | 
AB5 Q1569R P1597K: domain 11 AB5 + Q1569R, P1597K (protein) MKSNEHDDCQVTNPSTGHLFDLSSLSGRAGFTAAYAKGWGVYMSICGENENCPPGVGACFGRTRISVGKANKRLRYVDQVLQLVYKDGSKCPSKSGLSYKSVISFVCRPEAGPTNRPMLISLDKQTCTLFFSWHTPLACEQATECSV | 0.0091 | 9.59e+06 |  |  | 
AB5 Q1569R P1597H: domain 11 AB5 + Q1569R, P1597H (protein) MKSNEHDDCQVTNPSTGHLFDLSSLSGRAGFTAAYAKGWGVYMSICGENENCPPGVGACFGRTRISVGKANKRLRYVDQVLQLVYKDGSHCPSKSGLSYKSVISFVCRPEAGPTNRPMLISLDKQTCTLFFSWHTPLACEQATECSV | 0.0058 | 3.2e+06 | 0.0034 | 2.37e+06 | 
AB5 P1597H S1602H: domain 11 AB5 + P1597H, S1602H (protein) MKSNEHDDCQVTNPSTGHLFDLSSLSGRAGFTAAYAKGWGVYMSICGENENCPPGVGACFGQTRISVGKANKRLRYVDQVLQLVYKDGSHCPSKHGLSYKSVISFVCRPEAGPTNRPMLISLDKQTCTLFFSWHTPLACEQATECSV | 0.0046 | 3.5e+06 | 0.0029 | 5.32e+06 | 
AB5 Q1569R P1597H G1603K: domain 11 AB5 + Q1569R, P1597H, G1603K (protein) MKSNEHDDCQVTNPSTGHLFDLSSLSGRAGFTAAYAKGWGVYMSICGENENCPPGVGACFGRTRISVGKANKRLRYVDQVLQLVYKDGSHCPSKSKLSYKSVISFVCRPEAGPTNRPMLISLDKQTCTLFFSWHTPLACEQATECSV | 0.0058 | 6.67e+06 | 0.0051 | 7.54e+06 | 
AB5 HI^23D: domain 11 AB5 + HI loop of clone 23D (HFQS) (protein) MKSNEHDDCQVTNPSTGHLFDLSSLSGRAGFTAAYAKGWGVYMSICGENENCPPGVGACFGQTRISVGKANKRLRYVDQVLQLVYKDGSPCPSKSGLSYKSVISFVCRPEAGPTNRPMLISLHFQSCTLFFSWHTPLACEQATECSV | 0.012 |  |  |  | 
